Measurements as given in IntAct's records for PubMed 24351927.

What was measured:
1433g_rat Ywhag [1] = target: 1433g_rat Ywhag (UniProt P61983)
1433t_human YWHAQ = 1433t_human YWHAQ (UniProt P27348)
1433z_human YWHAZ = 1433z_human YWHAZ (UniProt P63104)
1433g_rat Ywhag [2] = target: 1433g_rat Ywhag (UniProt P61983); remark: listed apart in the source

UniProt P61983, sequence (P61983 whole entry): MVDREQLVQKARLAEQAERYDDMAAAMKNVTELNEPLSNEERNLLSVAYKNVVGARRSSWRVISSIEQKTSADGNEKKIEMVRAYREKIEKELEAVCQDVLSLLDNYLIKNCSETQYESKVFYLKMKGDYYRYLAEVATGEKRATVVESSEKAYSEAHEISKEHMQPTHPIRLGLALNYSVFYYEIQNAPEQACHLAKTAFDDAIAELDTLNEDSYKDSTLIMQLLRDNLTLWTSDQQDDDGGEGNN
UniProt P63104, sequence (P63104 whole entry): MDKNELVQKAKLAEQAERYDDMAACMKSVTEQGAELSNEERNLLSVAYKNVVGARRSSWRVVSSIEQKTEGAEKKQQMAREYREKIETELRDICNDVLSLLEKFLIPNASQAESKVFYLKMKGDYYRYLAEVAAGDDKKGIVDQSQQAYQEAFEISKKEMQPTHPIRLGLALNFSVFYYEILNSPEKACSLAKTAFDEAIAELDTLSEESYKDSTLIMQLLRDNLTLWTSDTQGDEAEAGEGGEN
UniProt P27348, sequence (P27348 whole entry): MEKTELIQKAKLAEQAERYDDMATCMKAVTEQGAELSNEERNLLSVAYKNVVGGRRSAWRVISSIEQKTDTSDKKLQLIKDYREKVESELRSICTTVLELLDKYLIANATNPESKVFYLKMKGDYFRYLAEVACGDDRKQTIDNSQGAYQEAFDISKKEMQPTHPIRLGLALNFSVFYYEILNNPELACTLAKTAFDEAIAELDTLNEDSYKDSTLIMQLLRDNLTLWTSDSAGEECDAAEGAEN

Row | Substance | effect of a mutation on the interaction (1433g_rat Ywhag [1]) | effect of a mutation on the interaction (1433t_human YWHAQ) | effect of a mutation on the interaction (1433z_human YWHAZ) | effect of a mutation on the interaction (1433g_rat Ywhag [2])
1 | Leucine-rich repeat serine/threonine-protein kinase 2 (Homo sapiens), Q5S007 R1441G | disrupting interaction | disrupting interaction | disrupting interaction | –
2 | Leucine-rich repeat serine/threonine-protein kinase 2 (Homo sapiens), Q5S007 S1443A;S1444A | – | – | – | disrupting interaction
3 | Leucine-rich repeat serine/threonine-protein kinase 2 (Homo sapiens), Q5S007 S1444A | – | disrupting interaction | disrupting interaction | disrupting interaction
